This note sets out measurements from article doi:10.1101/2020.02.11.943597.

Experiment [1] deals with T1, N-cadherin (human (endogenous in primary fibroblasts)), P19022.
T1 chain: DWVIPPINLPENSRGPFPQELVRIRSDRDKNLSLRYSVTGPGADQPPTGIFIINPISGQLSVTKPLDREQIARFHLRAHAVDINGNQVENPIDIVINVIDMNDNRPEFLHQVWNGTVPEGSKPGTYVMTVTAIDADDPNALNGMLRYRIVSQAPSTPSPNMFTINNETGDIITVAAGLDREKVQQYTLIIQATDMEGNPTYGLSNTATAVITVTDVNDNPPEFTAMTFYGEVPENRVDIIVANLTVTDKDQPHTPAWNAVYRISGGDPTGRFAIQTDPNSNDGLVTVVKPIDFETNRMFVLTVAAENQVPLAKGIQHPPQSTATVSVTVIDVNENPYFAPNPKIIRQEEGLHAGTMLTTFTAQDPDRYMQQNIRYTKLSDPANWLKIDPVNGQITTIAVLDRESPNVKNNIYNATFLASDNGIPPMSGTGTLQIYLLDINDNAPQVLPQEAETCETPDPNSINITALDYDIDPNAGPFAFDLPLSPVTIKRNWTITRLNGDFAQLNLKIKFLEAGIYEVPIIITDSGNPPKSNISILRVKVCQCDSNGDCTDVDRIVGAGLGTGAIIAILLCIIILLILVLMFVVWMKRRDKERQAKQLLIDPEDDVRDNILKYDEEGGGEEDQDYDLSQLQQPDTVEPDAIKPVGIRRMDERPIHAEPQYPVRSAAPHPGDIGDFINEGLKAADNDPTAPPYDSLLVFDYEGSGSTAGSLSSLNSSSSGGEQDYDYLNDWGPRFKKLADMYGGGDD
Kind of experiment: AFM single-cell force spectroscopy. The settings on record: remark: other sources report otherwise.

The target in experiment [2] is T1, N-cadherin (human (endogenous in …)). Kind of experiment: AFM single-cell force spectroscopy. The settings on record: remark: other sources report otherwise.

B1: N-cadherin, P19022 160-906 (natural protein)
chain: T1 chain
As to B1, the median rupture force was found to be 45.2 pN in experiment [1] and 51.9 pN in experiment [2].
